Results published in paper PMC12519218 (2025).

B1: ATRAP-HA [not stated] / GST-AP4μ^160–453 [not stated] (parent complex)
chain 1: MELPAVNLKVILLGHWLLTTWGCIVFSGSYAWANFTILALGVWAVAQRDSIDAISMFLGGLLATIFLDIVHISIFYPRVSLTDTGRFGVGMAILSLLLKPLSCCFVYHMYRERGGELLVHTGFLGSSQDRSAYQTIDSAEAPADPFAVPEGRSQDARGY
chain 2: QQSKVAPSSAASRPVLSSRSDQSQKNEVFLDVVERLSVLIASNGSLLKVDVQGEIRLKSFLPSGSEMRIGLTEEFCVGKSELRGYGPGIRVDEVSFHSSVNLDEFESHRILRLQPPQGELTVMRYQLSDDLPSPLPFRLFPSVQWDRGSGRLQVYLKLRCDLLSKSQALNVRLHLPLPRGVVSLSQELSSPEQKAELAEGALRWDLPRVQGGSQLSGLFQMDVPGPPGPPSHGLSTSASPLGLGPASLSFELPRHTCSGLQVRFLRLAFRPCGNANPHKWVRHLSHSDAYVIRI

Variants of: B1
Assay: GST pull-down, immunoblot quantification; bound protein normalized to the 2% loading; sum of both groups normalized to 1 in each replicate; n = 4, mean ± SD; parent: 0.71; read off a plot

Variant	response
chain 1 Y133A	~0.29
